Assay results as given in the supplement of paper PMC10567573.

B1: EPB41L3 (parent)
chain: SDYISEFRFAPNHTKELEDKVIEL

Variants of: B1
Test: protein stability index of a GFP-peptide fusion (GPS, HEK-293T) (PSI 1-6); higher = more stable
Conditions: c terminus: a fixed tail appended
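Also: lentivirally expressed fusions sorted by FACS into six bins by GFP to DsRed ratio, PSI derived from sequencing read proportions per bin multiplied by bin number.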

Protein stability index, by site and new letter:
K20: P 2.2; R 1.83; H 1.79; T 1.68; C 2.13; E 2.48; A 2.4; G 1.93; S 2.3; I 3.7; F 2.31; V 2.02; W 1.4; L 2.28; N 1.87; Q 1.89; Y 1.87; D 2.71; M 1.8
E18: D 1.49; G 2.53; P 1.47; T 1.73; W 1.56; Q 2.42; H 2.77; K 2.08; N 1.81; A 2.05; F 1.8; M 1.8; L 1.77; S 2.32; I 2.19; R 2.34; Y 1.77; V 2.07; C 1.44
E23: A 1.9; C 1.38; S 2.09; P 1.82; D 2.01; L 1.93; G 1.72; M 1.92; Q 2.05; T 1.96; H 2.18; R 2.02; I 1.55; V 2.38; F 3.17; N 1.42; K 1.75; Y 2.38; W 1.46
E16: V 1.89; L 2.37; C 2.17; F 2.81; W 2.07; I 2.08; H 2.65; T 1.54; Q 2.3; R 2.66; N 1.76; Y 2.56; K 1.77; M 3.24; S 2.42; A 2.56; P 1.57; G 1.81; D 1.82
L17: P 1.96; V 2.68; Q 2.18; C 2.05; F 2.86; A 1.87; S 1.84; Y 2.59; W 1.77; K 2.07; R 1.27; M 2.47; E 2.32; I 2.37; H 1.84; D 2.51; G 1.97; T 1.98; N 2.17
L24: G 3.33; F 2.31; A 2.42; C 3.05; E 2.65; D 3.11
V21: Q 1.99; C 1.88; S 2.05; A 2.31; Y 2.14; R 1.78; M 3.45; E 2.54; N 2.38; W 2.14; G 2.37; D 2.96; P 1.94; K 2.15; I 2.22; L 2.48; F 3.22; T 2.18; H 1.85
D19: Y 1.36; N 1.79; L 2.69; T 1.8; M 2.03; Q 1.71; S 2.81; C 2.02; P 2.19; K 1.89; W 3.08; R 1.39; I 2.71; F 3.65; G 2.06; E 1.77; V 2.09; A 1.49; H 1.86
I22: R 3.03; T 2.56; S 3.18; F 1.74; H 2.55; K 2.51; Q 2.92; M 2.31; P 2.58; A 3.26; Y 2.29; E 2.94; G 2.79; C 2.19; W 2.45; L 2.28; V 2.58; D 2.88; N 2.74
K15: R 1.74; P 2.29; Q 2.34; V 2.04; T 2.1; N 2.12; S 2.07; Y 1.63; W 1.77
